Experimental data: publication PMC12491500

Target: His-tagged SA2107 labelled with ATTO 488 (SA2107_(488)) (Staphylococcus aureus)
Experiment: flow-induced dispersion analysis (FIDA); PreMix method; 20 nM SA2107_(488) as indicator, preincubated 10 min with 0-2 µM unlabelled ComK1 or ComK2 as analyte; PBS + Tween 0.1%; 25 °C; change of the apparent hydrodynamic radius; three independent experiments

Question: How did the Kd turn out when “His6-tagged ComK2 (recombinant, purified) (natural protein)” was run?
Answer: 420 nM
